In assay [1] the target is His-tagged PrgU (Enterococcus faecalis (plasmid pCF10)). Kind of assay: SEC-MALS. A general note: In gel filtration, larger molecules generally elute earlier.
For assay [2] the target is unchanged. Kind of assay: GEMMA.

The results in this text go back to publication doi:10.1101/2020.07.06.190884.

His-tagged PrgU (natural protein): the stoichiometry N in assay [1] and in assay [2] was 2 in each case.
